The record followed here is paper PMC3959803 (Experimental biology and medicine (Maywood, N.J.), 2009).

The test has as its target T1, His-p55 (recombinant His-tagged erythrocyte p55/MPP1) (human, UniProt Q00013-1 1-466).
T1 sequence (looked up): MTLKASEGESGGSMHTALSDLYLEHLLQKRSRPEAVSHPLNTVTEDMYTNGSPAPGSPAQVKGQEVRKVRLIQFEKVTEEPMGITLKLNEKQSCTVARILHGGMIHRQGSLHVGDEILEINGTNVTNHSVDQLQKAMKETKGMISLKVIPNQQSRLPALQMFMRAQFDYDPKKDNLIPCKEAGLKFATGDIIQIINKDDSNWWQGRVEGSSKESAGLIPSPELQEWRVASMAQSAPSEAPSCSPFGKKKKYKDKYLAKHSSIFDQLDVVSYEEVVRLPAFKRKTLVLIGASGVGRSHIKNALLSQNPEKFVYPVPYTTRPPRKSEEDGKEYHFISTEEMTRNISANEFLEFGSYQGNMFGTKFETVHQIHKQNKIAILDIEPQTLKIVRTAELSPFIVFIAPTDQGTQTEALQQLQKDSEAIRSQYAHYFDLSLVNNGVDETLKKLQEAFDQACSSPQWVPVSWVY
Put plainly: SPR. In general terms: Surface plasmon resonance follows binding to a sensor surface in real time, without labels.

The Kd is the free concentration of one partner at which half of the binding sites on the other are occupied at equilibrium, for simple one-to-one binding.

B1: MBP-NF2-N (merlin N-terminal half, aa 1-311, including the FERM domain) (domain or fragment, human, UniProt P35240 1-311, looked up)
chain: MAGAIASRMSFSSLKRKQPKTFTVRIVTMDAEMEFNCEMKWKGKDLFDLVCRTLGLRETWFFGLQYTIKDTVAWLKMDKKVLDHDVSKEEPVTFHFLAKFYPENAEEELVQEITQHLFFLQVKKQILDEKIYCPPEASVLLASYAVQAKYGDYDPSVHKRGFLAQEELLPKRVINLYQMTPEMWEERITAWYAEHRGRARDEAEMEYLKIAQDLEMYGVNYFAIRNKKGTELLLGVDALGLHIYDPENRLTPKISFPWNEIRNISYSDKEFTIKPLDKKIDVFKFNSSKLRVNKLILQLCIGNHDLFMRRR
For the molecule B1, the Kd was 3.7 nM.
